Holding throughout (assay): purified protein
Common to all, as to assay type: biochemical, Haloferax mediterranei

Substrate in data set [1]: NC(=O)C1=CN([C@@H]2O[C@H](COP(=O)(O)OP(=O)(O)OC[C@H]3O[C@@H](n4cnc5c(N)ncnc54)[C@H](O)[C@@H]3O)[C@@H](O)[C@H]2O)C=CC1
To be noted: 20 mM 2-ketohexanoic acid, 4 M KCl, 50 mM HEPES pH 8.0, 22 °C, varied: cofactor.

Substrate in data set [2]: NC(=O)C1=CN([C@@H]2O[C@H](COP(=O)(O)OP(=O)(O)OC[C@H]3O[C@@H](n4cnc5c(N)ncnc54)[C@H](OP(=O)(O)O)[C@@H]3O)[C@@H](O)[C@H]2O)C=CC1
To be noted: 4 mM 2-ketohexanoic acid, 4 M KCl, 50 mM HEPES pH 8.0, 22 °C, varied: cofactor.

Substrate in data set [3]: CCCCC(=O)C(=O)O
To be noted: 0.25 mM NADPH, 4 M KCl, 50 mM HEPES pH 8.0, 22 °C.

B1: D2HDH (Haloferax mediterranei ATCC 33500) (protein)
chain: MHIERLAVDESVGRAMPPQRFIEALSDLGVPVEFAGEDEQFGPGDAVASFGHRDAFLDADWVHCIRAGYDEFPVGVYEEAGTYLTNSTGIHGTTVGETVAGYMLTFARRLHAYRDAQHDHAWDLPRYEEPFTLAGERVCVVGLGTLGRGVVDRAAALGMEVVGVRRSGDPVDNVSTVYTPDRLHEAIADARFVVLATPLTDETEGMVAAPEFETMREDASLVNVARGPVVVESDLVAALDSGDIAGAALDVFSEEPLPEDSPLWDFEDVLITPHVSAATSKYHEDVAALIRENIEKIATGDELTNRVV
notes: homodimer (~66 kDa; 79 kDa by gel filtration); residues 1-308; no tag mentioned
With B1, in data set [1], the Michaelis-Menten constant (Km) (commonly the substrate concentration at which the rate is half of its maximum) was found to be 97 ± 18 µM; the Vmax (commonly the top rate of the reaction or transport when substrate is in excess) is 4.4 µmol/min/mg; the catalytic constant (kcat) – broadly, the number of substrate molecules converted per active site and unit of time at saturation – is 2.48 ± 0.167 s⁻¹; the specificity constant (kcat/Km) (usually the turnover number divided by the Michaelis constant) is 25600 M⁻¹ s⁻¹. Besides, in data set [2], the Michaelis constant (Km) amounted to 14 ± 4 µM, the Vmax was determined as 2.5 µmol/min/mg, the catalytic constant (kcat) came to 1.38 ± 0.0667 s⁻¹ and the kcat/Km came out at 98800 M⁻¹ s⁻¹. Further, in data set [3], the Michaelis constant (Km) worked out at 460 ± 30 µM, the Vmax was 2.5 µmol/min/mg, the catalytic constant (kcat) stood at 1.38 ± 0.0333 s⁻¹ and the kcat/Km came out at 3000 M⁻¹ s⁻¹.

For the origin of these results see article PMC12328707, “Potassium binding by carbonyl clusters, halophilic adaptation and catalysis of Haloferax mediterranei D-2-hydroxyacid dehydrogenase” (Communications Biology, 2025).
